Results published in patent publication US20140242093A1, “METHODS AND COMPOSITIONS FOR MODULATING THE INNATE IMMUNE RESPONSE AND/OR MYOGENESIS IN A MAMMALIAN SUBJECT” (FRED HUTCHINSON CANCER RESEARCH CENTER, priority 2011, published 2014).

Test system: control human primary myoblasts
Assay: Expression microarray of primary myoblasts transduced with lentivirus carrying DUX4-fl, DUX4-s or GFP
Method: Primary human myoblasts were collected and cultured as previously described (Snider et al., 2010). Primary myoblasts were maintained at or below 70% confluency for proliferation. For differentiation, cells were allowed to reach 95-100% confluency in growth medium. Once confluency was reached, the cells were changed to differentiation medium (F10 media supplemented with 1% horse serum, 10 μg/mL insulin, and 10 μg/mL transferrin, penicillin/streptomycin) and maintained for 4 days. Human RD cells were grown in DMEM in 10% bovine calf serum (Hyclone) and penicillin/streptomycin. The primary myoblasts were transduced with lentivirus carrying DUX-fl, DUX4- or GFP (MOI=15).
Expression microarrays were performed on the transduced cells at 24 hours after transduction as follows. […] Samples were analyzed by Illumina Human Whole Genome microarrays. Probe intensities were corrected, normalized, and summarized by the Lumi package of Bioconductor (Du et al., 2008). Differentially expressed genes were identified by the LIMMA package of Bioconductor (Wettenhall and Smyth, 2004). Gene set enrichment analysis (GSEA) was performed using the Bioconductor GOstats package (Falcon and Gentleman, 2007).

B1: DUX4-s: short splice form of DUX4 (SEQ ID NO:112), keeps the double-homeobox domains, lacks the C-terminal activation domain (protein, listed as Homo sapiens)
chain: MALPTPSDSTLPAEARGRGRRRRLVWTPSQSEALRACFERNPYPGIATRERLAQAIGIPEPRVQIWFQNERSRQLRQHRRESRPWPGRRGPPEGRRKRTAVTGSQTALLLRAFEKDRFPGIAAREELARETGLPESRIQIWFQNRRARHPGQGGRAPAQV
fc of ATRIP (expression array) (Refseq NM_032166.2): 0.002138 | CEP78 expression fc (Refseq NM_032171.1): −0.1396 | SON expression fc (Refseq NM_032195.1): −0.2838 | LARP1B expression fc (Refseq NM_032239.2): −0.2602 | MED10 expression fc (Refseq NM_032286.2): 0.5994 | C1orf57 fc (Refseq NM_032324.1): 0.3544 | ELOF1 expression fc (Refseq NM_032377.3): −0.3008 | fc of C15orf48 (expression array) (Refseq NM_032413.2): 1.653 | PKIB expression fc (Refseq NM_032471.4): −0.1719 | KBTBD8 expression fc (Refseq NM_032505.1): 0.01077 | TMEM185A expression fc (Refseq NM_032508.1): 0.2327 | PARD6G fc (Refseq NM_032510.3): −0.01049 | fc of EBPL (expression array) (Refseq NM_032565.2): −0.0901 | fc of ACCS (expression array) (Refseq NM_032592.3): −0.1557 | RBBP6 expression fc (Refseq NM_032626.5): −0.1339 | SPRYD5 expression fc (Refseq NM_032681.1): −0.07702 | fc of SPPL2A (expression array) (Refseq NM_032802.3): 1.124 | ATOH8 expression fc (Refseq NM_032827.4, cultured human skeletal muscle): −0.2886 | CORO6 fc (Refseq NM_032854.2): −0.3004 | fc of TIGD5 (expression array) (Refseq NM_032862.2): −0.2163 | CASP6 expression fc (Refseq NM_032992.2): 0.2336 | TRIM5 fc (Refseq NM_033034.1): 0.5003 | EPSTI1 expression fc (Refseq NM_033255.2, cultured human skeletal muscle): 0.6618 | TP53INP1 fc (Refseq NM_033285.2): −0.5734 | CASP1 fc (Refseq NM_033294.2): 2.171 | PRIC285 expression fc (Refseq NM_033405.2, cultured human skeletal muscle): 0.8634 | ZNF622 expression fc (Refseq NM_033414.2): 0.01403 | PANX2 expression fc (Refseq NM_052839.2): 0.2001 | fc of C20orf72 (expression array) (Refseq NM_052865.2): −0.05254 | fc of GBP5 (expression array) (Refseq NM_052942.2): 1.314 | fc of ALPK2 (expression array) (Refseq NM_052947.3): −1.08 | fc of ANTXR1 (expression array) (Refseq NM_053034.1): 0.3595 | AP1S1 fc (Refseq NM_057089.2): −0.1404 | CCNE1 expression fc (Refseq NM_057182.1): −0.1277 | FBXO32 fc (Refseq NM_058229.2): 0.7666 | CCNT2 expression fc (Refseq NM_058241.1): −0.3221 | SLC44A1 fc (Refseq NM_080546.3): 0.7801 | fc of C2orf28 (expression array) (Refseq NM_080592.2): −0.07859 | DYNLL2 expression fc (Refseq NM_080677.1): 0.6521 | HOM-TES-103 fc (Refseq NM_080731.1): −0.3166 | ZNF280A expression fc (Refseq NM_080740.3): 0.05889 | C20orf127 expression fc (Refseq NM_080757.1, cultured human skeletal muscle): 0.4401 | fc of PTPRA (expression array) (Refseq NM_080841.2): 0.04113 | ASB5 fc (Refseq NM_080874.2): −0.4567 | APBB3 expression fc (Refseq NM_133172.2, cultured human skeletal muscle): 0.03992 | fc of DIS3L (expression array) (Refseq NM_133375.2): −0.2728 | C6orf117 expression fc (Refseq NM_138409.1): −0.06998 | fc of SDSL (expression array) (Refseq NM_138432.2): −0.09243 | TRIM43 expression fc (Refseq NM_138800.1): 0.02385 | CMBL expression fc (Refseq NM_138809.3, cultured human skeletal muscle): 0.06858 | fc of FGD4 (expression array) (Refseq NM_139241.1): 1.214 | ANGPTL4 fc (Refseq NM_139314.1): 1.267 | MBD3L2 expression fc (Refseq NM_144614.2): 0.02684 | JSRP1 fc (Refseq NM_144616.2): −0.4661 | fc of PPM1M (expression array) (Refseq NM_144641.1): −0.2381 | fc of C1orf58 (expression array) (Refseq NM_144695.2): 1.054 | FXYD5 fc (Refseq NM_144779.1): 0.09461 | Cllorf82 expression fc (Refseq NM_145018.2): −0.2738 | CDC42EP5 fc (Refseq NM_145057.2): 0.1387 | SPATA18 expression fc (Refseq NM_145263.2, cultured human skeletal muscle): −0.214 | MOBKL2C fc (Refseq NM_145279.4): 0.1274 | ZNF296 expression fc (Refseq NM_145288.1): 0.1758 | fc of MGST1 (expression array) (Refseq NM_145792.1): 0.2271 | OSBPL7 fc (Refseq NM_145798.2): −0.3669 | TP53I3 expression fc (Refseq NM_147184.1, cultured human skeletal muscle): 0.192 | fc of GJD3 (expression array) (Refseq NM_152219.3): 0.8646 | ACPL2 fc (Refseq NM_152282.3): 0.1468 | fc of C1orf131 (expression array) (Refseq NM_152379.2): −0.08789 | fc of PPM1K (expression array) (Refseq NM_152542.2): 1.44 | C12orf50 expression fc (Refseq NM_152589.1): −0.02137
